Test results from paper PMC6895277.
Read-outs that look alike come from different tables or passages of the source.

Legend:
[1] = system: T1, VEGF165 (human), P15692-4; conditions: N25 and N34 = Ds (7-(2-thienyl)imidazo[4,5-b]pyridine); biotin-dT at T54; SPR: 1x PBS (1 mM KH2PO4, 3 mM Na2HPO4, 155 mM NaCl; 205 mM NaCl for IFNγ), pH 7.4, 0.05% Nonidet P-40, 25°C; EMSA: 1x PBS, 0.05% NP-40, 25°C, 25 nM DNA, 50 nM …; cited from earlier work
T1 sequence: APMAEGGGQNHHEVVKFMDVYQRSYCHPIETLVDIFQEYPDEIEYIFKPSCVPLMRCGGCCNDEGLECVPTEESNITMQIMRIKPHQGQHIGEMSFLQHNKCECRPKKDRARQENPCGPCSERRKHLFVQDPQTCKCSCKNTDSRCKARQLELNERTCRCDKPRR

[2] = system: T1, VEGF165 (human), P15692-4; assay: SPR; conditions: biotin-dT at T54, SPR: 1x PBS (1 mM KH2PO4, 3 mM Na2HPO4, 155 mM NaCl; 205 mM NaCl for IFNγ), pH 7.4, 0.05% Nonidet P-40, 25°C, EMSA: 1x PBS, 0.05% NP-40, 25°C, 25 nM DNA, 50 nM …
IFNγ (human) [3] = molecular target: T2, IFNγ (human) (UniProt P01579); conditions: N28 and N39 = Ds; biotin-dT at T53; SPR: 1x PBS (1 mM KH2PO4, 3 mM Na2HPO4, 155 mM NaCl; 205 mM NaCl for IFNγ), pH 7.4, 0.05% Nonidet P-40, 25°C; EMSA: 1x PBS, 0.05% NP-40, 25°C, 25 nM DNA, 50 nM …; cited from earlier work
T2 sequence: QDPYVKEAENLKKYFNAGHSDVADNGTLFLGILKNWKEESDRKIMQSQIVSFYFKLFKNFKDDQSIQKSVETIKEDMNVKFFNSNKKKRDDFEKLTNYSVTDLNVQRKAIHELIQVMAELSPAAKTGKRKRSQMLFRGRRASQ

IFNγ (human) [4] = molecular target: T2, IFNγ (human); assay: SPR; conditions: biotin-dT at T53, SPR: 1x PBS (1 mM KH2PO4, 3 mM Na2HPO4, 155 mM NaCl; 205 mM NaCl for IFNγ), pH 7.4, 0.05% Nonidet P-40, 25°C, EMSA: 1x PBS, 0.05% NP-40, 25°C, 25 nM DNA, 50 nM …

Sequence: GCGGTAAGCCGCGTCCGAAGGGGCNTGCGGCGANCCCGAATGGGTCCGCCGCGTAGCG [V-Apt1 (DD)]
- Kd [1]: 1 pM
- Kd ([2]; N25 and N34 = Ds (7-(2-thienyl)imidazo[4,5-b]pyridine)): 0.0016 nM

Sequence: GCGGTAAGCCGCGTCCGAAGGGGCNTGCGGCGAACCCGAATGGGTCCGCCGCGTAGCG [V-Apt3 (DA)]
- Kd ([2]; N25 = Ds): 0.058 nM

Sequence: GCGGTAAGCCGCGTCCGAAGGGGCATGCGGCGANCCCGAATGGGTCCGCCGCGTAGCG [V-Apt2 (AD)]
- Kd ([2]; N34 = Ds): 0.002 nM

Sequence: CCCGCCCGGGTCCGCGAAGCGGTAGGTNTGGGCTAGGCNGCTGGCGGGCGCGTAGCG [I-Apt1 (DD)]
- Kd (IFNγ (human) [3]): 0.033 nM
- Kd (IFNγ (human) [4]; N28 and N39 = Ds): 0.013 nM

Sequence: CCCGCCCGGGTCCGCGAAGCGGTAGGTATGGGCTAGGCAGCTGGCGGGCGCGTAGCG [I-Apt4 (AA)]
- Kd (IFNγ (human) [4]): 16 nM

Sequence: GCGGTAAGCCGCGTCCGAAGGGGCATGCGGCGAACCCGAATGGGTCCGCCGCGTAGCG [V-Apt4 (AA)]
- Kd [2]: 0.16 nM
